Measured values published in patent publication US11319341B2, “Immune-stimulating soluble doxorubicin-conjugated complex” (Yafei (Shanghai) Biopharmaceutical Co., Ltd., priority 2016, dated 2022).
Like-named read-outs stand apart in the source and are kept apart here. Residues, ends and D or L forms follow the SMILES beside them. *: point of attachment. Doxorubicin(3'-N) = COc1cccc2c1C(=O)c1c(O)c3c(c(O)c1C2=O)C[C@@](O)(C(=O)CO)C[C@@H]3O[C@H]1C[C@H](N*)[C@H](O)[C@H](C)O1; Hexanoyl(6-maleimido) = O=C1C=CC(=O)N1CCCCCC(=O)*; Butanoyl(4-maleimido) = O=C1C=CC(=O)N1CCCC(=O)*; Propanoyl(3-maleimido) = O=C1C=CC(=O)N1CCC(=O)*; X1 = O=C1C=CC(=O)N1CCOCCOCCOCCC(=O)*; PEG6 = NCCOCCOCCOCCOCCOCCOCCC(=O)O; PEG4 = NCCOCCOCCOCCOCCC(=O)O; PEG3 = NCCOCCOCCOCCC(=O)O; PEG2 = NCCOCCOCCC(=O)O

Assay: Water solubility of freeze-dried compounds in water (observation and HPLC)

**Q.** With `COc1cccc2c1C(=O)c1c(O)c3c(c(O)c1C2=O)C[C@@](O)(C(=O)CO)C[C@@H]3O[C@H]1C[C@H](NC(=O)[C@H](CC(C)C)NC(=O)[C@H](CC(N)=O)NC(=O)[C@H](C)NC(=O)[C@H](C)NC(=O)[C@H](CC(=O)O)NC(=O)CCOCCOCCOCCNC(=O)CCN2C(=O)C=CC2=O)[C@H](O)[C@H](C)O1` [QHL-048] ({Propanoyl(3-maleimido)-PEG3}-DAANL-{Doxorubicin(3'-N)}) as the molecule, how does the solubility read?
**A.** > 20 mg/mL

**Q.** With `COc1cccc2c1C(=O)c1c(O)c3c(c(O)c1C2=O)C[C@@](O)(C(=O)CO)C[C@@H]3O[C@H]1C[C@H](NC(=O)[C@H](CC(C)C)NC(=O)[C@H](CC(N)=O)NC(=O)[C@H](C)NC(=O)[C@H](C)NC(=O)[C@H](C)NC(=O)CCCCCN2C(=O)C=CC2=O)[C@H](O)[C@H](C)O1` [QHL-122] ({Hexanoyl(6-maleimido)}-AAANL-{Doxorubicin(3'-N)}) as the molecule, how does the solubility read?
**A.** > 10 mg/mL

**Q.** Which solubility does the source give for `COc1cccc2c1C(=O)c1c(O)c3c(c(O)c1C2=O)C[C@@](O)(C(=O)CO)C[C@@H]3O[C@H]1C[C@H](NC(=O)[C@H](CC(C)C)NC(=O)[C@H](CC(N)=O)NC(=O)[C@H](C)NC(=O)[C@H](C)NC(=O)[C@H](CCC(=O)O)NC(=O)CCOCCOCCOCCNC(=O)CCCN2C(=O)C=CC2=O)[C@H](O)[C@H](C)O1` [QHL-069] ({Butanoyl(4-maleimido)-PEG3}-EAANL-{Doxorubicin(3'-N)}) here?
**A.** > 25 mg/mL

**Q.** With `COc1cccc2c1C(=O)c1c(O)c3c(c(O)c1C2=O)C[C@@](O)(C(=O)CO)C[C@@H]3O[C@H]1C[C@H](NC(=O)[C@H](CC(C)C)NC(=O)[C@H](CC(N)=O)NC(=O)[C@H](C)NC(=O)[C@H](C)NC(=O)[C@H](CCC(=O)O)NC(=O)CCOCCOCCOCCOCCOCCOCCNC(=O)CCN2C(=O)C=CC2=O)[C@H](O)[C@H](C)O1` [QHL-057] ({Propanoyl(3-maleimido)-PEG6}-EAANL-{Doxorubicin(3'-N)}) as the molecule, how does the solubility read?
**A.** > 25 mg/mL

**Q.** With `COc1cccc2c1C(=O)c1c(O)c3c(c(O)c1C2=O)C[C@@](O)(C(=O)CO)C[C@@H]3O[C@H]1C[C@H](NC(=O)[C@H](CC(C)C)NC(=O)[C@H](CC(N)=O)NC(=O)[C@H](C)NC(=O)[C@H](C)NC(=O)[C@@H](NC(=O)CCCCCN2C(=O)C=CC2=O)[C@@H](C)O)[C@H](O)[C@H](C)O1` [QHL-130] ({Hexanoyl(6-maleimido)}-TAANL-{Doxorubicin(3'-N)}) as the molecule, how does the solubility read?
**A.** > 2 mg/mL

**Q.** For `COc1cccc2c1C(=O)c1c(O)c3c(c(O)c1C2=O)C[C@@](O)(C(=O)CO)C[C@@H]3O[C@H]1C[C@H](NC(=O)[C@H](CC(C)C)NC(=O)[C@H](CC(N)=O)NC(=O)[C@H](C)NC(=O)[C@H](C)NC(=O)[C@H](CC(C)C)NC(=O)CCCCCN2C(=O)C=CC2=O)[C@H](O)[C@H](C)O1` [QHL-124] ({Hexanoyl(6-maleimido)}-LAANL-{Doxorubicin(3'-N)}), which solubility is on record?
**A.** > 5 mg/mL

**Q.** For `COc1cccc2c1C(=O)c1c(O)c3c(c(O)c1C2=O)C[C@@](O)(C(=O)CO)C[C@@H]3O[C@H]1C[C@H](NC(=O)[C@H](CC(C)C)NC(=O)[C@H](CC(N)=O)NC(=O)[C@H](C)NC(=O)[C@H](C)NC(=O)CNC(=O)CCCCCN2C(=O)C=CC2=O)[C@H](O)[C@H](C)O1` [QHL-121] ({Hexanoyl(6-maleimido)}-GAANL-{Doxorubicin(3'-N)}), which solubility is on record?
**A.** > 10 mg/mL

**Q.** Which solubility does the source give for `COc1cccc2c1C(=O)c1c(O)c3c(c(O)c1C2=O)C[C@@](O)(C(=O)CO)C[C@@H]3O[C@H]1C[C@H](NC(=O)[C@H](CC(C)C)NC(=O)[C@H](CC(N)=O)NC(=O)[C@H](C)NC(=O)[C@H](C)NC(=O)[C@H](CC(=O)O)NC(=O)CCOCCOCCOCCOCCOCCOCCNC(=O)CCCN2C(=O)C=CC2=O)[C@H](O)[C@H](C)O1` [QHL-084] ({Butanoyl(4-maleimido)-PEG6}-DAANL-{Doxorubicin(3'-N)}) here?
**A.** > 30 mg/mL

**Q.** For `COc1cccc2c1C(=O)c1c(O)c3c(c(O)c1C2=O)C[C@@](O)(C(=O)CO)C[C@@H]3O[C@H]1C[C@H](NC(=O)[C@H](CC(C)C)NC(=O)[C@H](CC(N)=O)NC(=O)[C@H](C)NC(=O)[C@H](C)NC(=O)[C@H](CC(=O)O)NC(=O)CCOCCOCCOCCNC(=O)CCCN2C(=O)C=CC2=O)[C@H](O)[C@H](C)O1` [QHL-072] ({Butanoyl(4-maleimido)-PEG3}-DAANL-{Doxorubicin(3'-N)}), which solubility is on record?
**A.** > 25 mg/mL

**Q.** Which solubility does the source give for `COc1cccc2c1C(=O)c1c(O)c3c(c(O)c1C2=O)C[C@@](O)(C(=O)CO)C[C@@H]3O[C@H]1C[C@H](NC(=O)[C@H](CC(C)C)NC(=O)[C@H](CC(N)=O)NC(=O)[C@H](C)NC(=O)[C@H](C)NC(=O)[C@H](CCC(=O)O)NC(=O)CCOCCOCCOCCOCCNC(=O)CCCN2C(=O)C=CC2=O)[C@H](O)[C@H](C)O1` [QHL-075] ({Butanoyl(4-maleimido)-PEG4}-EAANL-{Doxorubicin(3'-N)}) here?
**A.** > 25 mg/mL

**Q.** Which solubility does the source give for `COc1cccc2c1C(=O)c1c(O)c3c(c(O)c1C2=O)C[C@@](O)(C(=O)CO)C[C@@H]3O[C@H]1C[C@H](NC(=O)[C@H](CC(C)C)NC(=O)[C@H](CC(N)=O)NC(=O)[C@H](C)NC(=O)[C@H](C)NC(=O)[C@H](CC(=O)O)NC(=O)CCOCCOCCOCCOCCOCCOCCNC(=O)CCN2C(=O)C=CC2=O)[C@H](O)[C@H](C)O1` [QHL-060] ({Propanoyl(3-maleimido)-PEG6}-DAANL-{Doxorubicin(3'-N)}) here?
**A.** > 25 mg/mL

**Q.** With `COc1cccc2c1C(=O)c1c(O)c3c(c(O)c1C2=O)C[C@@](O)(C(=O)CO)C[C@@H]3O[C@H]1C[C@H](NC(=O)[C@H](CC(C)C)NC(=O)[C@H](CC(N)=O)NC(=O)[C@H](C)NC(=O)[C@H](C)NC(=O)[C@H](CC(=O)O)NC(=O)CCOCCOCCOCCOCCNC(=O)CCCN2C(=O)C=CC2=O)[C@H](O)[C@H](C)O1` [QHL-078] ({Butanoyl(4-maleimido)-PEG4}-DAANL-{Doxorubicin(3'-N)}) as the molecule, how does the solubility read?
**A.** > 25 mg/mL

**Q.** Which solubility does the source give for `COc1cccc2c1C(=O)c1c(O)c3c(c(O)c1C2=O)C[C@@](O)(C(=O)CO)C[C@@H]3O[C@H]1C[C@H](NC(=O)[C@H](CC(C)C)NC(=O)[C@H](CC(N)=O)NC(=O)[C@H](C)NC(=O)[C@H](C)NC(=O)[C@H](CC(=O)O)NC(=O)CCOCCOCCOCCOCCNC(=O)CCN2C(=O)C=CC2=O)[C@H](O)[C@H](C)O1` [QHL-054] ({Propanoyl(3-maleimido)-PEG4}-DAANL-{Doxorubicin(3'-N)}) here?
**A.** > 25 mg/mL

**Q.** Which solubility does the source give for `COc1cccc2c1C(=O)c1c(O)c3c(c(O)c1C2=O)C[C@@](O)(C(=O)CO)C[C@@H]3O[C@H]1C[C@H](NC(=O)[C@H](CC(C)C)NC(=O)[C@H](CC(N)=O)NC(=O)[C@H](C)NC(=O)[C@H](C)NC(=O)[C@H](CCC(=O)O)NC(=O)CCOCCOCCOCCOCCNC(=O)CCN2C(=O)C=CC2=O)[C@H](O)[C@H](C)O1` [QHL-051] ({Propanoyl(3-maleimido)-PEG4}-EAANL-{Doxorubicin(3'-N)}) here?
**A.** > 25 mg/mL

**Q.** Which solubility (freeze-dried compound dissolved in water, observation and HPLC test (>95%)) does the source give for `COc1cccc2c1C(=O)c1c(O)c3c(c(O)c1C2=O)C[C@@](O)(C(=O)CO)C[C@@H]3O[C@H]1C[C@H](N)[C@H](O)[C@H](C)O1` [C1: DOX] here?
**A.** <1 mg/mL

**Q.** Which solubility does the source give for `COc1cccc2c1C(=O)c1c(O)c3c(c(O)c1C2=O)C[C@@](O)(C(=O)CO)C[C@@H]3O[C@H]1C[C@H](NC(=O)[C@H](CC(C)C)NC(=O)[C@H](CC(N)=O)NC(=O)[C@H](C)NC(=O)[C@H](C)NC(=O)[C@H](CC(=O)O)NC(=O)CCOCCOCCNC(=O)CCCN2C(=O)C=CC2=O)[C@H](O)[C@H](C)O1` [QHL-066] ({Butanoyl(4-maleimido)-PEG2}-DAANL-{Doxorubicin(3'-N)}) here?
**A.** > 15 mg/mL

**Q.** Which solubility does the source give for `COc1cccc2c1C(=O)c1c(O)c3c(c(O)c1C2=O)C[C@@](O)(C(=O)CO)C[C@@H]3O[C@H]1C[C@H](NC(=O)[C@H](CC(C)C)NC(=O)[C@H](CC(N)=O)NC(=O)[C@H](C)NC(=O)[C@H](C)NC(=O)[C@H](Cc2c[nH]cn2)NC(=O)CCCCCN2C(=O)C=CC2=O)[C@H](O)[C@H](C)O1` [QHL-137] ({Hexanoyl(6-maleimido)}-HAANL-{Doxorubicin(3'-N)}) here?
**A.** > 5 mg/mL

**Q.** For `COc1cccc2c1C(=O)c1c(O)c3c(c(O)c1C2=O)C[C@@](O)(C(=O)CO)C[C@@H]3O[C@H]1C[C@H](NC(=O)[C@H](CC(C)C)NC(=O)[C@H](CC(N)=O)NC(=O)[C@H](C)NC(=O)[C@H](C)NC(=O)[C@H](CO)NC(=O)CCCCCN2C(=O)C=CC2=O)[C@H](O)[C@H](C)O1` [QHL-129] ({Hexanoyl(6-maleimido)}-SAANL-{Doxorubicin(3'-N)}), which solubility is on record?
**A.** > 5 mg/mL

**Q.** For `COc1cccc2c1C(=O)c1c(O)c3c(c(O)c1C2=O)C[C@@](O)(C(=O)CO)C[C@@H]3O[C@H]1C[C@H](NC(=O)[C@H](CC(C)C)NC(=O)[C@H](CC(N)=O)NC(=O)[C@H](C)NC(=O)[C@H](C)NC(=O)[C@H](CCC(=O)O)NC(=O)CCN2C(=O)C=CC2=O)[C@H](O)[C@H](C)O1` [QHL-111] ({Propanoyl(3-maleimido)}-EAANL-{Doxorubicin(3'-N)}), which solubility is on record?
**A.** > 10 mg/mL

**Q.** For `COc1cccc2c1C(=O)c1c(O)c3c(c(O)c1C2=O)C[C@@](O)(C(=O)CO)C[C@@H]3O[C@H]1C[C@H](NC(=O)[C@H](CC(C)C)NC(=O)[C@H](CC(N)=O)NC(=O)[C@H](C)NC(=O)[C@H](C)NC(=O)CCOCCOCCOCCNC(=O)CCCN2C(=O)C=CC2=O)[C@H](O)[C@H](C)O1` [QHL-102] ({Butanoyl(4-maleimido)-PEG3}-AANL-{Doxorubicin(3'-N)}), which solubility is on record?
**A.** > 10 mg/mL

**Q.** With `COc1cccc2c1C(=O)c1c(O)c3c(c(O)c1C2=O)C[C@@](O)(C(=O)CO)C[C@@H]3O[C@H]1C[C@H](NC(=O)[C@H](CC(C)C)NC(=O)[C@H](CC(N)=O)NC(=O)[C@H](C)NC(=O)[C@H](C)NC(=O)[C@H](CC(=O)O)NC(=O)CCOCCOCCOCCN2C(=O)C=CC2=O)[C@H](O)[C@H](C)O1` [QHL-034] (X1-DAANL-{Doxorubicin(3'-N)}) as the molecule, how does the solubility read?
**A.** > 20 mg/mL

**Q.** With `COc1cccc2c1C(=O)c1c(O)c3c(c(O)c1C2=O)C[C@@](O)(C(=O)CO)C[C@@H]3O[C@H]1C[C@H](NC(=O)[C@H](CC(C)C)NC(=O)[C@H](CC(N)=O)NC(=O)[C@H](C)NC(=O)[C@H](C)NC(=O)[C@H](CC(N)=O)NC(=O)CCCCCN2C(=O)C=CC2=O)[C@H](O)[C@H](C)O1` [QHL-133] ({Hexanoyl(6-maleimido)}-NAANL-{Doxorubicin(3'-N)}) as the molecule, how does the solubility read?
**A.** > 2 mg/mL

**Q.** Which solubility does the source give for `COc1cccc2c1C(=O)c1c(O)c3c(c(O)c1C2=O)C[C@@](O)(C(=O)CO)C[C@@H]3O[C@H]1C[C@H](NC(=O)[C@H](CC(C)C)NC(=O)[C@H](CC(N)=O)NC(=O)[C@H](C)NC(=O)[C@H](C)NC(=O)CCOCCOCCOCCNC(=O)CCN2C(=O)C=CC2=O)[C@H](O)[C@H](C)O1` [QHL-090] ({Propanoyl(3-maleimido)-PEG3}-AANL-{Doxorubicin(3'-N)}) here?
**A.** > 10 mg/mL
